“And” between values parts separate entries of the source, which are not always exact repeats. Identical values can stand only once. “Also recorded” adds a separate entry of the source.
Columns and labels:
Assay type in all cases: biochemical
[1] = test system: undamaged template; experiment: Translesion replication assay, control; details: gel-extension assay, 60° C.
Description: (§1) Template primers 22 (undamaged) or 23 (containing a synthetic abasic site) were synthesized by Lofstrand Laboratories (Gaithersburg, Md.). Template primer 24 (containing a single cis-syn thymine dimer), was synthesized as described (34). Primer 25 was ^32P-labeled and annealed to one of the three templates 22, 23, 24 (at a primer template ratio of molar 1:1.5) and extended in 40 mM Tris.HCl at pH 8.0, 5 mM MgCl2, 100 μM of each dNTP, 10 mM DTT, 250 μg/ml BSA, 2.5% glycerol, 10 nM primer-template DNA and 0.1 Unit of polymerase at 60° C. for various times.

[2] = test system: primer-template duplex with matched or mismatched 3′ terminus; experiment: Steady-state extension kinetics, gel-based assay; details: incorporated base is dCTP
Description: (§2) Kinetic parameters were determined using a gel-based assay essentially as described (16). Primers 15, 16, 17 (3′ base=G, C, A respectively) were ^32P-labeled and annealed to one of template strands 18, 19, 20 (template base=C, G, A respectively) or 21 (template base C different context). Duplex substrates were used at 50 nM final concentration in 1× Taq buffer with various concentrations of enzyme and dNTP. Reactions were carried out at 60° C. for times whereby <20% of primer-template was utilized at the highest concentration of dNTP.
(§3) Extension and incorporation kinetics of M1 and M4 for a selection of mismatches were measured using a gel-based steady-state kinetic assay (Goodman) (Tables 1 & 2). M1 and M4 respectively extend a C•C mispair 390 and 75-fold more efficiently than wtTaq. […] The gain in extension efficiency derives predominantly from increased relative Vmax values for the mutant polymerases, while Km for nucleotide substrates remains largely unchanged. For most DNA polymerases the relative efficiency of extending a given mispair (f0ext) is similar to the relative efficiency of forming it (finc) (Goodman 1993, Goodman 1990, Washington 2001). Indeed, M1 and M4 respectively incorporate dCTP opposite template base C 206- and 29-fold more efficiently than wtTaq (Table 2).

[3] = test system: template containing an abasic site; experiment: Translesion replication assay (primer extension), abasic site; details: gel-extension assay, 60° C.
Description: as §1
Primer extension assays were essentially as described in (Ghadessy et al., 2004). Briefly, undamaged oligonucleotides and a 51mer containing a synthetic abasic site were synthesized by Lofstrand Laboratories (Gaithersburg, Md.) using standard techniques and were gel purified prior to use. A 20mer primer (LES—20 P) with the sequence 5′-[…]-3′ (SEQ ID NO: 99) was 5′-labeled with [^32P]ATP (5000 Ci/mmole; 1 Ci=37 GBq) (Pharmacia) using T4 polynucleotide kinase (Invitrogen, Carlsbad Calif.). Radiolabeled primer-template DNAs were prepared by annealing the 5′[^32P] labeled 20mer primer to one of the two following 51mer templates (at a primer template ratio of molar 1:1.5). 1) undamaged DNA (UNDT51T); 5′-AGCTACCATGCCTGCACGAATTCGGCATCCGTCGCGACCACGGTCGCAGCG-3′ (SEQ ID NO: 100); 2) an oligo (LABA51T) containing a synthetic abasic site (indicated as an X in bold font); 5′-AGCTACCATGCCTGCACGACA XCG GCATCCGTCGCGACCACGGTCGCAGCG-3′ (SEQ ID NO: 101). Standard replication reactions of 10 contained 40 mM Tris.HCl at pH 8.0, 5 mM MgCl2, 100 μM of each ultrapure dNTP (Amersham Pharmacia Biotech, NJ), 10 mM DTT, 250 μg/ml BSA, 2.5% glycerol, 10 nM 5′[32P] primer-template DNA and 0.1 Unit of polymerase. After incubation at 60° C. for various times reactions were terminated by the addition of 10 μl of 95% formamide/10 mM EDTA and the samples heated to 100° C. for 5 min. Reaction mixtures (5 μl) were subjected to 20% polyacrylamide/7 M Urea gel electrophoresis and replication products visualized by PhosphorImager analysis.

[4] = test system: primer-template duplex, correct or incorrect incoming dNTP; experiment: Steady-state single nucleotide incorporation kinetics, gel-based assay
Description: as §2, §3

[5] = 3′-terminal base pair C · G (template base: 3′ primer base), matched

Ratio of fext, fext (mutant polymerase)/fext (wtTaq) ([2]; 3′-terminal base pair A · A): 3.6
Ratio of fext, fext (mutant polymerase)/fext (wtTaq) ([2]; 3′-terminal base pair A · G): 6.2
Ratio of fext, fext (mutant polymerase)/fext (wtTaq) ([2]; 3′-terminal base pair C · C): 390
Ratio of fext, fext (mutant polymerase)/fext (wtTaq) ([2]; 3′-terminal base pair G · A): 13.3
Ratio of fext, fext (mutant polymerase)/fext (wtTaq) ([2]; 3′-terminal base pair G · G): 22.5
Ratio of finc, finc (mutant polymerase)/finc (wtTaq) ([4]; base pair C: dCTP): 206 and 206.74
Ratio of finc, finc (mutant polymerase)/finc (wtTaq) ([4]; base pair G: dATP): 2.08
Ratio of finc, finc (mutant polymerase)/finc (wtTaq) ([4]; base pair G: dGTP): 21.88
Ratio of finc, finc (mutant polymerase)/finc (wtTaq) ([4]; base pair G: dTTP): 2.43
B1: M1: Taq mutant G84A, D144G, K314R, E520G, F598L, A608V, E742G; SEQ ID NO: 1 (protein)
chain: MRGMLPLFEPKGRVLLVDGHHLAYRTFHALKGLTTSRGEPVQAVYGFAKSLLKALKEDGDAVIVVFDAKAPSFRHEAYGGYKAARAPTPEDFPRQLALIKELVDLLGLARLEVPGYEADDVLASLAKKAEKEGYEVRILTADKGLYQLLSDRIHVLHPEGYLITPAWLWEKYGLRPDQWADYRALTGDESDNLPGVKGIGEKTARKLLEEWGSLEALLKNLDRLKPAIREKILAHMDDLKLSWDLAKVRTDLPLEVDFAKRREPDRERLRAFLERLEFGSLLHEFGLLESPKALEEAPWPPPEGAFVGFVLSRREPMWADLLALAAAAGGRVHRAPEPYKALRDLKEARGLLAKDLSVLALREGLGLPPGDDPMLLAYLLDPSNTTPEGVARRYGGEWTEEAGERAALSERLFANLWGRLEGEERLLWLYREVERPLSAVLAHMEATGVRLDVAYLRALSLEVAEEIARLEAEVFRLAGHPFNLNSRDQLERVLFDELGLPAIGKTEKTGKRSTSAAVLGALREAHPIVEKILQYRELTKLKSTYIDPLPDLIHPRTGRLHTRFNQTATATGRLSSSDPNLQNIPVRTPLGQRIRRAFIAEEGWLLVVLDYSQIELRVLAHLSGDENLIRVFQEGRDIHTETASWMFGVPREAVDPLMRRAAKTINFGVLYGMSAHRLSQELAIPYEEAQAFIERYFQSFPKVRAWIEKTLEEGRRRGYVETLFGRRRYVPDLEARVKSVRGAAERMAFNMPVQGTAADLMKLAMVKLFPRLEEMGARMLLQVHDELVLEAPKERAEAVARLAKEVMEGVYPLAVPLEVEVGIGEDWLSAKE
modifications: Mutant Thermus aquaticus DNA polymerase
primer extension on undamaged template [1]: efficiently and rapidly extended primers to the end of the template
Vmax ([2]; 3′-terminal base pair A · A (template base: 3′ primer base)): 1.5 % Min^−1
Km ([2]; 3′-terminal base pair A · A): 40.9 µM
fext, f (mismatched 3′terminus)/f (matched terminus) ([2]; 3′-terminal base pair A · A): 2.4 × 10^−6
Vmax ([2]; 3′-terminal base pair A · G (template base: 3′ primer base)): 44.6 % Min^−1
Km ([2]; 3′-terminal base pair A · G): 280 µM
fext, f (mismatched 3′terminus)/f (matched terminus) ([2]; 3′-terminal base pair A · G): 1.3 × 10^−6
Vmax ([2]; 3′-terminal base pair C · C (template base: 3′ primer base)): 9.2 % Min^−1
Km ([2]; 3′-terminal base pair C · C): 25.8 µM
fext, f (mismatched 3′terminus)/f (matched terminus) ([2]; 3′-terminal base pair C · C): 2.3 × 10^−5
Km [2, 5]: 0.02 µM
Vmax [2, 5]: 308.0 % Min^−1
Vmax ([2]; 3′-terminal base pair G · A (template base: 3′ primer base)): 2.4 % Min^−1
Km ([2]; 3′-terminal base pair G · A): 22 µM
fext, f (mismatched 3′terminus)/f (matched terminus) ([2]; 3′-terminal base pair G · A): 7.2 × 10^−6
Vmax ([2]; 3′-terminal base pair G · G (template base: 3′ primer base)): 29.6 % Min^−1
Km ([2]; 3′-terminal base pair G · G): 67 µM
fext, f (mismatched 3′terminus)/f (matched terminus) ([2]; 3′-terminal base pair G · G): 2.9 × 10^−5
abasic site bypass in primer extension [3]: able to extend past the lesion and to the end of the template; also recorded: capable of both insertion opposite the abasic site and lesion bypass
Km ([4]; base pair C: dCTP): 264 µM
finc, f (incorrect dNTP)/f (correct dNTP) ([4]; base pair C: dCTP): 7.97 × 10^−6
Vmax ([4]; base pair C: dCTP (template base: incoming nucleotide)): 6.08 % Min^−1
Vmax ([4]; base pair C: dGTP (template base: incoming nucleotide), correct dNTP): 111.66 % Min^−1
Km ([4]; base pair C: dGTP, correct dNTP): 0.0387 µM
Km ([4]; base pair G: dATP): 257 µM
finc, f (incorrect dNTP)/f (correct dNTP) ([4]; base pair G: dATP): 1.72 × 10^−4
Vmax ([4]; base pair G: dATP (template base: incoming nucleotide)): 681.82 % Min^−1
Vmax ([4]; base pair G: dCTP (template base: incoming nucleotide), correct dNTP): 308 % Min^−1
Km ([4]; base pair G: dCTP, correct dNTP): 0.02 µM
Km ([4]; base pair G: dGTP): 377 µM
finc, f (incorrect dNTP)/f (correct dNTP) ([4]; base pair G: dGTP): 3.72 × 10^−5
Vmax ([4]; base pair G: dGTP (template base: incoming nucleotide)): 215.98 % Min^−1
Km ([4]; base pair G: dTTP): 1.65 µM
finc, f (incorrect dNTP)/f (correct dNTP) ([4]; base pair G: dTTP): 4.01 × 10^−4
Vmax ([4]; base pair G: dTTP (template base: incoming nucleotide)): 10.19 % Min^−1
